{"source": "the DeepSol protein solubility set"}
{"experiment": "soluble on expression in E. coli; label from the status in PepcDB or PDB records"}
{"sequence": "MGSDKIHHHHHHMNLTIRQFRAFLAVADLRSFTAASKYLCITQGAVSGLINEMESQMEVSLFDRTSRVVKLSPDGEKFLPAAMRVVEEFQRAENYARDLKEIKKSLVRVVGAPLIACAFLPQIIHAFKRQHPHTHVQLIDKPMSQLQKSIMLGEADFGIGPERPLEPEIDKQTLFTTEIALYCHPDYRLHKKTVRWEEIQSEELIAVGNESIPMISATAGVRIKPKMTVEHMATAMSLAAQCEGVVIAGTFSRHYAKSYQLATCSLTPPLRRNMNLYFHAWRAQTPATQRFRDFLFSYVDEHHDAPANQR", "soluble on expression in E. coli": "not soluble"}
{"sequence": "MQIDVNVEVKEKPTGAVMFGAGYSNMEGLILSGSVAQDNIFGTGKFVNLMVNTGSVNKTYSLSYTDPYFTKDGVTAGLDLYKRVLNTRTLSSVMNFNTDTLGAGLRFGIPINENDSIMGGLGAEQTTIDLGPDSPQRNIDFVNKFGRTTINIPATLSWRRDGRDSAIWTTSGTTQRVFAEVGLPGGDLTYYKLSYDLRWYFPITEIFTLMLNGELGYGDGYSGKELPFFKNFFAGGNTSVRGYNISSLGPRDATNRTLGGNKRAVGNIEVLFPMPGMRNDRTVRLSAFLDGGTVWGPGGVRPDQEGLRYSAGIAVTWISPMGPLKISVAQPLNSQPGDNIQRFQFQFGQQFLEHHHHHH", "soluble on expression in E. coli": "not soluble"}
{"sequence": "MSLGMDEKSVAIVFPHHLLEDHPAAGKTSGFILVEDQLFFGDPVFGLRFHKNKLVLHRASMRYYHDHLKSRGLKAEYIQYSPDPHMGYLRDHLEGYDRVYTLELLDHELEARMKKLSMELGLEITEIEAPFIFRRNLMDGYFRDGRFLLRSFYIRERKRLSILMENSRPAGGKWTFDTENRKRMPPDLQVPAPVKLPENEYVQEAKEYVSEKFPDNPGSMDRFNYPEGHHHHHH", "soluble on expression in E. coli": "soluble"}
{"sequence": "MPYEADDYLSRHFQTSGTDLARKVDELAALAAPGDSPNLALYREMLFTVTRMAQADRNRWDAKIMLQTLREMEHAFSVLEQFKRRRKVTVFGSARTPVEHPVYALARKLGEELARYDLMVITGAGGGIMAAAHEGAGLENSLGFNITLPFEQHANHTVDGSGNLLSFHFFFLRKLFFVKEADALVLCPGGFGTLDEALEVLTLVQTGKSPLVPIVLLDQPGGRYWEHALEFMQEQLLENHYILPADMRLMRLVHSAEDAVKEIAQFYRNFHSSRWLKGTFVIRLNHALNEAALAHLHEHFASLCLSGGFQQQAYSEQEQDEPEFRNLTRLAFVFNGRDQGRLRELLDYINLPENWD", "soluble on expression in E. coli": "not soluble"}
{"sequence": "MGSDKIHHHHHHMTCKRALTAYPELLSRTVAAPSWVMPGTVRDNAIFLSGEVDEVGLCFFETAACLAYGENDLPEHLADLPLGWHVHLPGDLPWCDGGAEAAVPALRLMDKVAFLGAHRAVLHPPVGFADGAARLVAFVRAWEAAGRNPEDLCLENIRGEDLTGLWRTLCDLGCKVCLDMGHVLSYGQYGLLSLPGLSGRTSMLHANAPGPAGRHLSLDTLDGAGGGVGRAMCALLPDDAVVMVEVFDWEGVRRSLPLLETWFAAQR", "soluble on expression in E. coli": "not soluble"}
{"sequence": "MKARIMYEAYFNLTTKPFELLPNPDFIFPSKSHKRALMYLDYGISERAGFILLTGDIGTGKTTLIRNMIQLKDERTIISRIFNTRVEPEQLLAMICHDFGIPAEGRGKVALLNELNDYLIEQFALGNRPVLIIDEAQNLSADLLEDIRLLSNLETSDTKLLQIVLVGQPELREVLALPQLLQLRQRISINCHISPLSREETEGYIFHRLDRAGNRNAVAFSSDALDIVYRYSRGIPRLVNIICDFILLSAFAEQTTEIPGEMVRDIIGDLDFENHYWGGAEVAASERAPEAARLAPGRSDEATELVATLRAVIDRLESLEGDFARMSRGVLDEMSEKVASLENAFRFHVDETDSHISEIRRRIEKVQNLEVGTTGECQPQDSPKGLLKRMFGALEHHHHHH", "soluble on expression in E. coli": "not soluble"}
{"sequence": "MGSDKIHHHHHHMAEKFDAIVVGAGPAGNAAAYTMAKAGLSVLQLERGETPGTKNVQGAILYADALERIIPDFRDDAPLERHIIEQRMWVLDEKSFIGTNYRSDAFNSDQPNRYTILRAPFDKWFSGKVKEAGALVICETTVTELIQEGKKVIGVRTDREGGDIYADVVILADGVNSLLAKKAGFHGELEAKNVALAVKEIHFLPEEIVQSRFNIKGNEGVVIEIAGAVTHGMVGTAFLYTNKESITLGIGCLLSDFKNAGIAPYTLLEKLKAHPAIAPLIEGGEMKEYAAHLIPEGGYKAVPTLYGEGWMIAGDSAGLVNAVHREGSNLAMTSGRLAAETVIALKEMKLPCTAPHLARYKTALDDSFVMKDLRKYKELPDILHGNPHFFSVYPQLLNRAAHTMLMVDGQDKHSKEKTIRGSFVQQRSLWGLVGDAYRMWRATR", "soluble on expression in E. coli": "not soluble"}
{"sequence": "GSQITGTCPSGCSGDCYPECPPGCCGQVNLN", "soluble on expression in E. coli": "soluble"}
{"sequence": "MAHHHHHHMTYYTVEEITDRRINENDGAIEYAVKWEGVAGELTWEKRHQLTENCAETVQAVDQRCMDATDEELERWRDGKWKRGAKRAHDAPPLVGTTTERRKRSRSVSPAAGEDLEQVEVLNGLLLRPPCGAQNAEEEGTILMLGEVVLAEEASAILNGTGSYRKKCRTATVSTAVAFHTAPALDIEKRWRGIHGQSLLHSIEVAQSITPFHPHFRLHGCDPATRCAMALEVERSSHLRIISIAPPLMTHSGAVFGLPVALDPLVGEKDVEQLRQSVQLESPLFGSAAQELVKPHVEQMVVRYIIPEVTPATDDDTATPTTELFPVHGRIASMPLSVFRVVFPQLLIDYLLTNSVVLR", "soluble on expression in E. coli": "not soluble"}
{"sequence": "MESIGLVEVNSIARGIEAADAMLKAAQVDLLEAKPVCPGKYIVLICGDVAAVQSSVTAGKTMAAHSVLDDFILPNVHPQVLTAISAATPLTLIKALGIIETFSIASLIVAADTAAKTGQVDLVEIRIGMGIGGKSFVTLTGDVASVESSVAAGVMLASERGMLVDKVVIPSPHDHLKRCLC", "soluble on expression in E. coli": "soluble"}
{"sequence": "MPDSPAEVKTQPRSTPPSMPPPPPTSSQGATRPPSFTPHTLMNGSSHSPTAIHGAPSTPNGFSNGPATSSTASLSTQHLPPACGARQLSKLKRFLTTLQQFGSDISPEIGERVRTLVLGLVNSTLTIEEFHAKLQEATNFPLRPFVIPFLKANLPLLQRELLHCARLAKQTPAQYLAQHEQLLLDASATSPVDSSELLLEVNENGKRRTPDRTKENGSDRDPLHPDHLSKRSCTLSPAQRCSPSNGLPHPTPPPPPHYRLEDMAMAHHFRDSYRHPDPRELRERHRPLAIPGLDKKK", "soluble on expression in E. coli": "soluble"}
{"sequence": "EIINEEGKLERKADMFTRRTIQTHRAVTSVDTAVEALAVSIGEKACVDLGYMASLMGGPEKIPQIVEDLKGIIFKNPATGPFDLEDGGAHWHQGWQTADEYLSGNVRAKLAIARAAAEENPQFAINAEKLEQVQPKDLTASEISVRIGASWIDPEYYQQFMFELLHTPVYLQDRKIKLQYSPTTGEWNVQGKSTDNRDNVRVYATYGTKRINAYEIFEQTLNQRDVRIFDKTEVDGKEVRVLNEKQTAIAQQKQEAMCETFKDWIFKDPERRETLCRRYNEKFNCIRPREYDGSHIRFAGMNPEISLRTHQ", "soluble on expression in E. coli": "not soluble"}
{"sequence": "MDDSSEEANQFEPPPAIRKSTRAVNNLSPHQKEVRCQCGTNNTDNRLIKCVECEKWQHAICMSVMPLDIIMTYKCEMCEPRLLMVSRSQARAYQGVEPEPREVRKKGRNQSVNLEEFLEFLSEASENISRPLALTTLFEDYKEHINYPQSVRILRKQLESNLLETISMSPNYYADRKAQMLFAMGLRVKGEFLERLERNAVVEVDGYHRITFYKSKNLEFRGKHRVGRFPLVNRRKSAESTSQQHGNSGEEDDDDIFIDLVVPVTGNSRWNQFPVKQEIPDEQSFGSASTLPNAEIEPNLQYSLSDTMTTGSASTWNMAATPPSEMRGIMMESMNGLHALQSASYPPYQEMQEMLCVQHTMMKSMHEIIKTQSDFYREMFKTRAIAGAPPAPATTSLRAFLHFLKGYVDYLESEQLVDCSRLTQQHLETCRAADKLISMEKLLTGLAVATTIAEAHLSDVSAIINGASAMEFYKFIEIYASNQSNSAFSGLCTDLKQKIQALVNMDKKIPFKELSRAFRTAISLVSQ", "soluble on expression in E. coli": "not soluble"}
{"sequence": "MKTQQREQALAIYQQHQGKITNRAIADTIGVSAKTIGIWKKQDKWKEALFSASKNEQKQRPINNDELNERQRLFCLYYVKSFNATQSAIKAGYSPDSAHVTGSRLLKNEKVAAEIRRIKKEMVNEMFIEAMDVLQVYIKIAFADITDYVTFGKKEVQAVGKSGPLFDEDDNPIMKEISFVDVKDSGLVDGTIVTEAKLGKEGIAIKLADKMKALEKLSLYFDLFPDQFKQKIENEKLKLAKQKAEKTDDSQEPIEIMIKRKERKS", "soluble on expression in E. coli": "not soluble"}
{"sequence": "MTKIAFVFPGQGAQKVGMGQDVAAEYPEAKKIYDDADERLGFSITEIITEGPIELLTKSENAQPALVSTSVAILRALETYGVKADYVAGHSLGEYSALVAGGFLEASDAIYLVRKRGELMEAAVPNGAGAMAAVLGVDRETLKTITEEVTKEGDAVQLANLNCPGQIVISGTTAGVEKAGEKAKESGAKRVLPLAVSGPFHSSLMEPAALAFRDVLAEVKISDGQIPVVNNVDAKETTDKSEISDKLIKQIYSPVLWEDIVEELIKNGVDTFVEIGSGKVLAGLIKKINRDVTVLSAGDAESVKSVAATLKGE", "soluble on expression in E. coli": "not soluble"}
{"sequence": "MSLSIIVQKYGGTSVGSVQRIEHVANRIIATAASGKKVVVVVSAMGKTTDELVGLASEITDEPRKREMDMLLATGEQVTIALLAMALHKRGQEATSLTGWQAGMITESHHGNARILEVERARMDELLDKVHVVIVAGFQGIDQQGEIMTLGRGGSDTSAVAIAAALKAERCEIYTDVTGVFTTDPRVVKQARKLQTISYDEMLEMANLGASVLHPRAVEFAKNYEIPLLVASSMVDEPGTMIEEEGTMEQNLLVRGIAFENDVTKVTVHGLPNEIHTLPTLFAHLSAAGINVDIIIQNQTDSGMAISFSITQSSLKETLARLEELKGELSFQGIDYEEELAKVSIVGSGMVSNPGVAAKMFEILAANDIAIKMVSTSEIKVSAVIDEELMVLAVEMLHEQFKLHEEEPAVAVKVEGHHHHHH", "soluble on expression in E. coli": "soluble"}
{"sequence": "MGFFSSLSSLFGLGKKDVNIVVVGLDNSGKTTILNQLKTPETRSQQIVPTVGHVVTNFSTQNLSFHAFDMAGQMKYRSTWESYFHSSQGVIFVLDSSDRLRMELLKDELMMVMEHKDVVSRGIPIVILANKMDIPGAMTASDITVALGLNLYRSGTWSIHSTCALTGDGLDKAMQQLSAEITKYMESRRT", "soluble on expression in E. coli": "not soluble"}
{"sequence": "MAHHHHHHMKYLTFNRSNKDAIDLCERLEATKIDLANPLLLQYSWVIWEQVSDNKIKQSNNYKDYTRPLAKFNSVQKFWQLWNRLPQPSDLLAQKSMTRLSEDGTLRIIDALMIFRDNIQPMWEDPANAEGGHFEYKFVPRDFPYSQIDEFWNNLVLAIIGCTLKHYNLITGIRLVDKLSTTRHGYVRIEIWYTTVPDESVRNHLRKDLEEHMCNRIDGSHVYPPRGKNFSHSHK", "soluble on expression in E. coli": "soluble"}
{"sequence": "MGSSHHHHHHSSGLVPRGSHMEHAFTPLEPLLPTGNLKYCLVVLNQPLDARFRHLWKKALLRACADGGANHLYDLTEGERESFLPEFVSGDFDSIRPEVKEYYTKKGCDLISTPDQDHTDFTKCLQVLQRKIEEKELQVDVIVTLGGLGGRFDQIMASVNTLFQATHITPVPIIIIQKDSLIYLLQPGKHRLHVDTGMEGSWCGLIPVGQPCNQVTTTGLKWNLTNDVLGFGTLVSTSNTYDGSGLVTVETDHPLLWTMAIKS", "soluble on expression in E. coli": "soluble"}
{"sequence": "MSTINYDLSRIKALAFDVDGVLSSTTVPLHPSGEPMRTVNIKDGYAIQLAVKKGLHIAIITGGRTEAVRIRFAALGVKDLYMGSAVKIHDYRNFRDKYGLSDDEILYMGDDVPDIEVMRECGLPCCPKDAVPEVKSVAKYISYADGGRGCGRDVVEQVLKAHGKWMAEDAFGW", "soluble on expression in E. coli": "not soluble"}
